The text below walks through data of paper PMC6073527, “Functional Characterization and Structure-Guided Mutational Analysis of the Transsulfuration Enzyme Cystathionine γ-Lyase from Toxoplasma gondii” (International Journal of Molecular Sciences, 2018).

Broadly, the Km is the substrate concentration at which the rate is half of its maximum. A word on the kcat: it is the maximal rate divided by the concentration of active sites. In general, kcat/Km refers to the second-order rate constant that governs catalysis at low substrate concentration. One may read the stoichiometry N as a count of units in the complex or per binding partner.

The subject of data set [1] is N[C@@H](CCSC[C@H](N)C(=O)O)C(=O)O. As to the kind of experiment: steady-state kinetics of the purified enzyme, DTNB assay (Km). The settings on record: PLP; pH 9.0; 37.0 °C. In kind it is biochemical, Toxoplasma gondii.
The target in data set [2] is T1, Cystathionine γ-lyase (TgCGL) (Toxoplasma gondii, UniProt A0A125YN40).
T1 construct: gene TGME49_312930; full-length, N-terminal His6 tag (apo-protein)
As to the kind of experiment: intrinsic fluorescence titration of apo-TgCGL (excitation […] nm, emission […] nm). In kind it is binding.

The target of data set [3] is cystathionine γ-lyase from Toxoplasma gondii (Toxoplasma gondii). The data set is described as follows: SEC; analytical gel filtration on Superdex 200 HR 10/300 GL; 50 mM sodium phosphate buffer pH 8.5, 150 mM NaCl, 0.1 mM DTT; mass from a calibration curve.
Data set [4] concerns N[C@@H](CSCSC[C@H](N)C(=O)O)C(=O)O. As to the kind of experiment: steady-state kinetics of the purified enzyme, LDH-coupled assay (Km). In kind it is biochemical, Toxoplasma gondii. The note with it: PLP; pH 9.0; 37.0 °C.
For data set [5], the system named is N[C@@H](CCSC[C@H](N)C(=O)O)C(=O)O. As to the kind of experiment: purified protein. Type of data set: biochemical, Toxoplasma gondii. The settings on record: PLP active site; external aldimine with PLP (modelled); pH 9.0; 37.0 °C.
For data set [6], the target named is T2, Cystathionine γ-lyase (TgCGL) (Toxoplasma gondii, UniProt A0A125YN40, S77E).
T2 construct: gene TGME49_312930; full-length, N-terminal His6 tag
T2 sequence (A0A125YN40 1-417 S77E): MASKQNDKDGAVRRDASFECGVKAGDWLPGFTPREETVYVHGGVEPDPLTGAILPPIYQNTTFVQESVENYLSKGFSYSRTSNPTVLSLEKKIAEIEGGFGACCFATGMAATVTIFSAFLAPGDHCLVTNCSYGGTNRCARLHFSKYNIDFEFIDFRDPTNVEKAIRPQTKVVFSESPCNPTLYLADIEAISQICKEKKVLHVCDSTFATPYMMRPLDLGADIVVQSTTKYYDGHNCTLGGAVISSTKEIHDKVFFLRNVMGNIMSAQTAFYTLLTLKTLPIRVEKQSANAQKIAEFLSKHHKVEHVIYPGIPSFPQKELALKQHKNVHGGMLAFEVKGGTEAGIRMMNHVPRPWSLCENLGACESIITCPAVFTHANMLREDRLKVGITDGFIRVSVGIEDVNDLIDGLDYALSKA
The data set is described as follows: UV-visible absorption titration at […] and […] nm (no hydrolysis detected). In kind it is binding.

Data set [7] addresses T3, Cystathionine γ-lyase (TgCGL) (Toxoplasma gondii, UniProt A0A125YN40).
T3 construct: gene TGME49_312930; full-length, N-terminal His6 tag
T3 sequence (A0A125YN40 1-417): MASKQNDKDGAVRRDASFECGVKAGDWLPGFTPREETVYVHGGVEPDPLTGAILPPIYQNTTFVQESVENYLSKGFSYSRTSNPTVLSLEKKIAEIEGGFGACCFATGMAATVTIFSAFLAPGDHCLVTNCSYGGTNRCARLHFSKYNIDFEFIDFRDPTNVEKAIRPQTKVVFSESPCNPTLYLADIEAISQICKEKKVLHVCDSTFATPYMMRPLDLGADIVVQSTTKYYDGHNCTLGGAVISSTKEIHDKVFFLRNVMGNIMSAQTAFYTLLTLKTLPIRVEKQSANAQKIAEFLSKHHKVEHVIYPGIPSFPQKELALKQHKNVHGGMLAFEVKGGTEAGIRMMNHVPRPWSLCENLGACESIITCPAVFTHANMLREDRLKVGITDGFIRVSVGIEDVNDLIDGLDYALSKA
As to the kind of experiment: UV-visible absorption titration at […] and […] nm; also substrate inhibition (Ki […]). Type of data set: binding.

Data set [8] addresses T4, Cystathionine γ-lyase (TgCGL) (Toxoplasma gondii, UniProt A0A125YN40, N360S).
T4 construct: gene TGME49_312930; full-length, N-terminal His6 tag
The description is as above. Type of data set: binding.

Substrate in data set [9]: NCCSC[C@H](N)C(=O)O
The data set is described as follows: steady-state kinetics of the purified enzyme, α,β-elimination (Km). The settings on record: PLP. In kind it is biochemical, Toxoplasma gondii.

Substrate in data set [10]: N[C@@H](CSCSC[C@H](N)C(=O)O)C(=O)O
As to the kind of experiment: steady-state kinetics of the purified enzyme, LDH-coupled assay (Km). Type of data set: biochemical, Toxoplasma gondii. The settings on record: PLP; pH 9.0; 37.0 °C. The source holds these as a separate data set.

Substrate in data set [11]: N[C@@H](CCSC[C@H](N)C(=O)O)C(=O)O
The data set is described as follows: purified protein. The note with it: PLP active site; external aldimine with PLP (modelled); pH 9.0; 37.0 °C.

Regarding “Cystathionine γ-lyase (TgCGL) (Toxoplasma gondii ME49; S77A)”, in [1], the Km was 2.4 ± 0.3 mM, the kcat stood at 0.7 ± 0.1 s⁻¹ and the kcat/Km is 290 ± 80 M⁻¹ s⁻¹.
`Cc1ncc(COP(=O)(O)O)c(C=O)c1O` [PLP]: in data set [2], the Kd stood at 170 ± 40 nM.
In the case of “cystathionine γ-lyase from Toxoplasma gondii (enzyme)”, in data set [3], the stoichiometry N stood at 4.
Turning to “Cystathionine γ-lyase (TgCGL) (Toxoplasma gondii ME49; N360S)”, in [4], the Km came to 0.86 ± 0.03 mM, the kcat turned out to be 0.19 ± 0.01 s⁻¹ and the specificity constant (kcat/Km) was found to be 220 ± 20 M⁻¹ s⁻¹. Further, in [5], the Km is 1.1 ± 0.1 mM, the kcat was 0.08 ± 0.01 s⁻¹ and the kcat/Km is 73 ± 16 M⁻¹ s⁻¹.
As for `N[C@@H](CS)C(=O)O` [L-cysteine], the Kd in data set [6] is recorded as 677 ± 180 (335 nm); 874 ± 87 (421 nm) µM; in data set [7], 306 ± 41 (335 nm); 273 ± 52 (421 nm) µM; in data set [8], 335 ± 15 (335 nm); 331 ± 20 (421 nm) µM.

B1: Cystathionine γ-lyase (TgCGL) (Toxoplasma gondii ME49) (protein)
chain: MASKQNDKDGAVRRDASFECGVKAGDWLPGFTPREETVYVHGGVEPDPLTGAILPPIYQNTTFVQESVENYLSKGFSYSRTSNPTVLSLEKKIAEIEGGFGACCFATGMAATVTIFSAFLAPGDHCLVTNCSYGGTNRCARLHFSKYNIDFEFIDFRDPTNVEKAIRPQTKVVFSESPCNPTLYLADIEAISQICKEKKVLHVCDSTFATPYMMRPLDLGADIVVQSTTKYYDGHNCTLGGAVISSTKEIHDKVFFLRNVMGNIMSAQTAFYTLLTLKTLPIRVEKQSANAQKIAEFLSKHHKVEHVIYPGIPSFPQKELALKQHKNVHGGMLAFEVKGGTEAGIRMMNHVPRPWSLCENLGACESIITCPAVFTHANMLREDRLKVGITDGFIRVSVGIEDVNDLIDGLDYALSKA
notes: full-length, N-terminal His6 tag
For B1, the Km in data set [9] was 1.3 ± 0.1 mM. In [10], the Km came to 0.51 ± 0.01 mM, the kcat worked out at 0.24 ± 0.01 s⁻¹ and the kcat/Km is 470 ± 30 M⁻¹ s⁻¹. Moreover, in data set [11], the Km was found to be 0.9 ± 0.1 mM.
